Results as given in article PMC3597700.

What was measured:
[1] = target: GST-RHA dsRBD1+2 (Homo sapiens, UniProt Q08211 1-264); experiment: pull-down
[2] = target: GST-RHA dsRBD2 (Homo sapiens, UniProt Q08211 165-264); experiment: pull-down
[3] = target: GST-RHA dsRBD1 (Homo sapiens, UniProt Q08211 1-91); experiment: pull-down
[4] = target: RHA dsRBD1 N53A/K54A/K55A (Homo sapiens, UniProt Q08211 1-91, N53A;K54A;K55A); experiment: ITC
[5] = target: RHA dsRBD1 Y9A (Homo sapiens, UniProt Q08211 1-91, Y9A); experiment: ITC
Sequence of RHA dsRBD1 Y9A (Q08211 1-91 Y9A): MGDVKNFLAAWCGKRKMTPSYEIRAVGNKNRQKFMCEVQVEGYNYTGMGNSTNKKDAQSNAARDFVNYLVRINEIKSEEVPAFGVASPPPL

[6] = target: RHA dsRBD2 N234A/K235A/K236A (Homo sapiens, UniProt Q08211 165-264, N234A;K235A;K236A); experiment: ITC
Sequence of RHA dsRBD2 N234A/K235A/K236A (Q08211 165-264 N234A/K235A/K236A): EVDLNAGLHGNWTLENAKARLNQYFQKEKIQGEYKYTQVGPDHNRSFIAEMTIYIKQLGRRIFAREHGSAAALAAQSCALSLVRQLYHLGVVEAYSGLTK

[7] = target: RHA dsRBD1+2 (Homo sapiens, UniProt Q08211 1-264); experiment: ITC
Sequence of RHA dsRBD1+2 (Q08211 1-264): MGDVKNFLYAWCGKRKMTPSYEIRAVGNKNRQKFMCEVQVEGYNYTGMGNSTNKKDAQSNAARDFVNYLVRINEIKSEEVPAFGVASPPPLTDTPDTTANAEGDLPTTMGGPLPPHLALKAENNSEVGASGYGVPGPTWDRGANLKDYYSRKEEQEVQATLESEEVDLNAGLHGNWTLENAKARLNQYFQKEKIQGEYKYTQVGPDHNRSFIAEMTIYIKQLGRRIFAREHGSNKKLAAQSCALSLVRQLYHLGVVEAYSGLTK

[8] = target: T1, RHA dsRBD2 (Homo sapiens, UniProt Q08211 165-264); experiment: ITC
T1 sequence (Q08211 165-264): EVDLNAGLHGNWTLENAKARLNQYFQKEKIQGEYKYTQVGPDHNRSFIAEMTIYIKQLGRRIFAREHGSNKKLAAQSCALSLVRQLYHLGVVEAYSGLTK

[9] = target: RHA dsRBD2 K182A (Homo sapiens, UniProt Q08211 165-264, K182A); experiment: ITC
Sequence of RHA dsRBD2 K182A (Q08211 165-264 K182A): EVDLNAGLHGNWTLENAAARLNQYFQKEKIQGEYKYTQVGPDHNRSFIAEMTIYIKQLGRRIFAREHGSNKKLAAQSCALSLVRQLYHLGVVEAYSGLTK

[10] = target: T2, RHA dsRBD1 (Homo sapiens, UniProt Q08211 1-91); experiment: ITC
T2 sequence (Q08211 1-91): as the sequence (Q08211 1-91 Y9A) above, with A9Y counted along it

[11] = target: RHA dsRBD1 N30A (Homo sapiens, UniProt Q08211 1-91, N30A); experiment: ITC
Sequence of RHA dsRBD1 N30A (Q08211 1-91 N30A): as the sequence (Q08211 1-91 Y9A) above, with A9Y, N30A counted along it

[12] = target: RHA dsRBD2 H207A (Homo sapiens, UniProt Q08211 165-264, H207A); experiment: ITC
Sequence of RHA dsRBD2 H207A (Q08211 165-264 H207A): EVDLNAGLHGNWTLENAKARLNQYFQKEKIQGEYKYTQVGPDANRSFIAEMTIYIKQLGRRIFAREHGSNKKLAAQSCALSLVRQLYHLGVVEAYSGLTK

[13] = target: T2, RHA dsRBD1; experiment: crystal structure
[14] = target: T1, RHA dsRBD2; experiment: crystal structure

Sequence of RHA dsRBD1 N53A/K54A/K55A (Q08211 1-91 N53A/K54A/K55A): as the sequence (Q08211 1-91 Y9A) above, with A9Y, N53A, K54A, K55A counted along it
Sequence of GST-RHA dsRBD1+2 (Q08211 1-264): as the sequence (Q08211 1-264) above
Sequence of GST-RHA dsRBD2 (Q08211 165-264): as the sequence (Q08211 165-264) above
Sequence of GST-RHA dsRBD1 (Q08211 1-91): as the sequence (Q08211 1-91 Y9A) above, with A9Y counted along it

B1: 5'-biotinylated siRNA21 duplex (dsRNA)
RNA 1: AGACAGCAUUAUGCUGUCUUU
RNA 2: AGACAGCAUUAUGCUGUCUUU
binding result [1]: binds | binding result [2]: binds | binding result [3]: binds

B2: siRNA21 duplex (dsRNA)
RNA 1: AGACAGCAUUAUGCUGUCUUU
RNA 2: AGACAGCAUUAUGCUGUCUUU
modifications: 5' phosphate
binding result [4]: no binding | binding result [5]: no binding | binding result [6]: no binding | Kd [7]: 0.106 µM | Kd [8]: 13.6 µM | Kd [9]: 334 µM | Kd [10]: 5.93 µM | Kd [11]: 14.5 µM | Kd [12]: 291 µM

B3: GC10 duplex (dsRNA)
RNA 1: GCGCGCGCGC
RNA 2: GCGCGCGCGC
binding result [13]: binds | binding result [14]: binds
